# In the nanobody polyreactivity screen of Harvey et al. (2022):
# Experiment: yeast display, Sf9 membrane polyspecificity reagent, FACS + sequencing; frameworks hold sequencing errors
# Method in brief: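 Sorting gates, low and high (top ~1%), were placed on anti-HA fluorescence to track expression and on streptavidin fluorescence to track reagent binding. A clone's polyreactivity label is taken from the gate it came out of. The reagent was 10% biotinylated, detergent-solubilized Sf9 membrane, applied for 1 hour at 4 °C to galactose-induced yeast display cells.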
row,Sequence,polyreactivity (PSR sort gate)
1,QVQLVESGVCLVQAGGSLRLSCAASGSTITYNAMGWYRQAPGKERELVASISSGTTTYYADSVKGRFTISRDNAKNTVYLQMNSLHTEDTAVYYCAVDSCSRVQGWLAHNYDYWGQGTQVTVSS,low polyreactivity
2,QVQLVESGVGFVQAGGSLRLSCAASGSTFGYYDMGWYRQAPGKERELVASIRSSGSTYYADSVKGRFTISRDNPKHTVYFQMNSLKPEDTAVYYCNTASLYHRWQGSWPKYDYWGQGTQVTVSS,high polyreactivity
3,QVQLVESGVGIVQAGGSLRLSCAASGRIFDLYAMVWYRQAPGKEREFVAAISLSGGSTYYADSVKGRFTISRDNAKNTVYLQMNSLKPEDTAVYYCAADHTGKTYDYNYWGQGTQVTVSS,low polyreactivity
4,QVQLVESGVGIVQAGGSLRLSCAASGSTFVSNAMGWYIPAPGKERELVAAISWTGGSTYYADSVKGRFTISRDNAKTTVYLQMNSLKPEDTAVYYCAAQLTDTYYQYDYWGQVTQVTVSS,low polyreactivity
5,QVQLVESGVGIVQAGGSLRVSCAASGFTFYSYAKGWYRQAPGKERELVAAISYTGGSTYYADSVKGRFTISRDNAKNTVSLQMNSQKPEDSAVYYCAAKLWTRVTRMRRWVDYWGQGTQVSVSS,high polyreactivity
6,QVQLVESGVGLDQAGGSLRLSCAASGSTFWWNNMVCYRQAPGKERELVAAITTGGGTYYADSVKGRFTISRDNAKNSVYLQMNSLKPEDTAVYYCAATVRSYGWYAYHYSTYGYWGKGTQVTVSS,low polyreactivity
7,QVQLVESGVGLLQAGGSLRLSCAASGFIIVPYAMGWYIQAPGKERELVATITWRGDSTYYADSVKGRFTISRDNAKNTVYLQMNSLKPEDTAVYYCAKRVVRGKVDYWGQGTQVTVSS,low polyreactivity
8,QVQLVESGVGLVHAGGSLRLSCAASGFIFVRYSIGWYRQAPGKEREFVASISWSGGSTYYADSVKGRFTISRDNAKNTVYLQMNSLKPEDTAVYYCAAYVRKDRSRGLYGYWGQGTQVTVSS,high polyreactivity
9,QVQLVESGVGLVKAGGILRLSCAASGSIFLRYAMGWYRQAPGKERELVATISKSGGSTYYADSVKGRFTISRDNAKNTVYLQMNSLNPEDTAVYYCAAGYVYFQTYYYWGQGTQVTVSS,high polyreactivity
10,QVQLVESGVGLVQAAGSLRLSCAASGSIFPDNAMGWSRQAPGKERELVAAIDKGTGSTNYADSVKGRFTISRDNAKNTVYLQMNSLKPEDTAVYYCATYVVTLYWWYTYDYWGQGTQVTVSS,low polyreactivity
11,QVQLVESGVGLVQAGASLRLSCAASGFIFRKNAMGWYRQAPGKERELVAAISGSGGRTYYADSVKGRFTISRDNAKNTVYLQMNSVKPEDNAVYYCNADYLSRRYSFDYWGQGTQVTVSS,high polyreactivity
12,QVQLVESGVGLVQAGGRLRLSCAASGSIFPTNAMGWYRQAPGKERELVAAISGSGGSTYYADSVKGRFTISRDNAKNTVYLQMNSLKPEDTAVYYCAVKPAPTRTTKRLVYGYNYWGQGTQVTVSS,high polyreactivity
13,QVQLVESGVGLVQAGGRLRLSCASSAIIFKIYAMGWYRQAPGKERELVADITSVGSTKYADSVKGRFTISRDNAKNTVYLQMNSLKPEDTAVYYCATDWVTSHDDDYWGQGTQVTVSS,low polyreactivity
14,QVQLVESGVGLVQAGGSLRISCAASGGTFLWYAMGRYRQAPGKERELVADITYSGGSTYYADSVKGRFTISRDNAKNTVYLQMNSLKPEDTAVYYCATRGVSPSRPGYYWGQGTQVTVSS,high polyreactivity
15,QVQLVESGVGLVQAGGSLRLICAASGGTFEFYTMGRYRQAPGKERELVAVINASGDSTYYADSVKGRFTISRDNAKNTVYLQMNSLKPEDTAVYYCAADHRGEYDYWGQGTQVTGSS,low polyreactivity
16,QVQLVESGVGLVQAGGSLRLICAASGITFSGYDMVWYRQAPWKERELVAAISGSGTSTYYADSEKGRFTISRDKAKNTVYLQMNSLKPEDTAVYYCAARDAIFGSDYWGQGTQVTVSS,high polyreactivity

row,Sequence,polyreactivity (PSR sort gate)
1,QVQLVESGVGLVQAGGSLRLICAASGMTFDNYAMGWYRQAPGKERELVAAITSGDGTYYADSVKGRFTISRDNAKNTVYLQMNSLKPEDTAVFYCAVQGSRTENYDWYYYWGQGTQVTVSS,low polyreactivity
2,QVQLVESGVGLVQAGGSLRLICAASGSTFYYYAMGWYRQAPGKEREFVAAISSSTGSTYYADSVKGRFTISRDNAKNTVYLQLNSLKPEDTAVYYCNALTWYTSQDYDYWGQGTQVTVSS,high polyreactivity
3,QVQLVESGVGLVQAGGSLRLSCAASGFIIYGYVMGWYRQAPGKERELVAAINSSSGRTYYADSVKGRFTISRDNAKNTVYLQMNSLKPEDTAVYYCAAYYYGSYDGTPYDYWGQGTQVTVSS,low polyreactivity
4,QVQLVESGVGLVQAGGSLRLSCAASGFMFGGSAMGWKRQAPGKERELVAAITRSGGSTYYADSVKGRFTISRDNAKNTVYLQMNSLKPEDTAVYYCAAERQPYRTSSYNYWGQGTQVTVSS,high polyreactivity
5,QVQLVESGVGLVQAGGSLRLSCAASGFTFQQYAMAWYRQAPGKERELVASISSSGGSTYYADSVKGRFTISRDNAKNTVYLQMNSLKPEDTAVYYCNARSWVRRYIYYYWGQGTQVTVSS,high polyreactivity
6,QVQLVESGVGLVQAGGSLRLSCAASGFTIYRYAMGWYRQAPGKERELVAAISRGVNTNYADSVKGRFTISRDNAKNTVYLQMNSLKPEETAVYDCAARYDNPSYRTTYGFWGQGTQVTLSS,high polyreactivity
7,QVQLVESGVGLVQAGGSLRLSCAASGGIFSTYTMGWYIQAPGKERELVAAITTGNSTYYADSVKGRFTISRDNAKNTVYLQMNSLKPEDTAVYYCAAFAASRDYYRRLIHDGYDYWGQGTQVTVSS,low polyreactivity
8,QVQLVESGVGLVQAGGSLRLSCAASGITFYGYTMGWYRQAPGKEMELVASIRWRGGNTYYADSVKGRFTISRDNAKITVYLQMNSLKPEDTAVYYCNARARVYYYKEIVAYDYWGQGTQVTVSS,high polyreactivity
9,QVQLVESGVGLVQAGGSLRLSCAASGLIFQGYAMGWYTQAPGKERELVAAITLSGGSTYYADSVKGRFTISRDNAKITDYLLMNSLKPEDTAVYYCNAYYPDEPSLYDYWGQGTQVTVSS,low polyreactivity
10,QVQLVESGVGLVQAGGSLRLSCAASGLTFYLYSMGWYRQAPGKERELVAAINSRGGNTYYADSVKGRFTISRDKAKNTVDLQMNSLKPEDTAVYYCAADWGPWYYYWGQGTQVTVSS,high polyreactivity
11,QVQLVESGVGLVQAGGSLRLSCAASGRICVKYAMGWYRQAPGKERELVAAISASGGGTYYADSVKGRFTISRDNAKNTVYLQMNSLKPEDTAVYYCNADFRYPGQVPSYVTYDYWGQGTQVTVSS,low polyreactivity
12,QVQLVESGVGLVQAGGSLRLSCAASGRIFDGYDMGWYRQAPGKERELVAAITSVGSTNYADSVKGRFTISRDNAKNTVYLQMNSLKPEDTAVYYCAAVLYVFYDEYGYWEYFSQYDYWGQGTQVTVSS,low polyreactivity
13,QVQLVESGVGLVQAGGSLRLSCAASGRIFPTYAMGWYRQAPGQERELVAGITSGGRTNYADSVKGRFTISRDNAKNTVYLQMNSLKPEDTAVYYCAKRVWPRDQYGKRNPRMDYWGQGTQVTVSS,high polyreactivity
14,QVQLVESGVGLVQAGGSLRLSCAASGRIFWDYGMGWYRQAPGKERELVAVITWGGGSTYYADSVKGRFTISRDNAKNTVYLQMNSLKPEDTAVYYCAKEYHYYYWGQGTEVTVSS,low polyreactivity
15,QVQLVESGVGLVQAGGSLRLSCAASGRIFYLYAMGWYRQAPGKDSELVAAITWSGGSTTYADSVKVRFTISRDNAKNSVYLQMNSLKPEETAVYYCNADGWIFPSVSPMDYWGQGTQVTVSS,low polyreactivity
